US20230265124A1 (ARIZONA BOARD OF REGENTS ON BEHALF OF THE UNIVERSITY OF …, published 2023)
Bridges are numbered along the chain shown (N, C = ends). Where no end group is shown, it is not given here. [ ]: non-standard residue; d: D form. glucose = glucose (covalently linked to the residue side chain); Dap = NC[C@H](N)C(=O)O; Aib = CC(C)(N)C(=O)O

B1: SSoxy2 (peptide)
peptide: DYIQN[Dap]PLGS(lactose)-NH2
modifications: lactam 1-6
notes: Synthetic cyclic glycopeptide: Asp-Tyr-Ile-Gln-Asn-Dap-Pro-Leu-Gly-SerLact-CONH2, cyclized AA1-AA6
B2: 2LS118-3 (peptide)
peptide: [Dap]YIQNDPLG-NH2
modifications: lactam 1-6; N-terminus assumed
SMILES: CC[C@H](C)[C@@H]1NC(=O)[C@H](Cc2ccc(O)cc2)NC(=O)[C@@H](N)CNC(=O)C[C@@H](C(=O)N2CCC[C@H]2C(=O)N[C@@H](CC(C)C)C(=O)NCC(N)=O)NC(=O)[C@H](CC(N)=O)NC(=O)[C@H](CCC(N)=O)NC1=O
B3: 2LS118-6 (peptide)
peptide: DYIQN[Dap]PLGS(glucose)S(glucose)-NH2
modifications: lactam 1-6
notes: Synthetic cyclic glycopeptide: Asp-Tyr-Ile-Gln-Asn-Dap-Pro-Leu-Gly-(SerGlc)2-CONH2, cyclized AA1-AA6
B4: SSoxy1 (peptide)
peptide: DYIQN[Dap]PLS(lactose)-NH2
modifications: lactam 1-6
notes: Synthetic cyclic glycopeptide: Asp-Tyr-Ile-Gln-Asn-Dap-Pro-Leu-SerLact-CONH2, cyclized AA1-AA6
B5: 2LS118-5 (peptide)
peptide: DYIQN[Dap]PLGS(glucose)-NH2
modifications: lactam 1-6
notes: Synthetic cyclic glycopeptide: Asp-Tyr-Ile-Gln-Asn-Dap-Pro-Leu-Gly-SerGlc-CONH2, cyclized AA1-AA6
B6: 2LS118-4 (peptide)
peptide: DYIQN[Dap]PLS(glucose)-NH2
modifications: lactam 1-6
notes: Synthetic cyclic glycopeptide: Asp-Tyr-Ile-Gln-Asn-Dap-Pro-Leu-SerGlc-CONH2, cyclized AA1-AA6; also called compound 2LS118-4
B7: SSoxy4 (peptide)
peptide: EYIQN[Dap]PLS(glucose)-NH2
modifications: lactam 1-6
notes: Synthetic cyclic glycopeptide: Glu-Tyr-Ile-Gln-Asn-Dap-Pro-Leu-SerGlc-CONH2, cyclized AA1-AA6
B8: 2LS118-2 (peptide)
peptide: EYIQN[Dap]PLG-NH2
modifications: lactam 1-6; N-terminus assumed
SMILES: CC[C@H](C)[C@@H]1NC(=O)[C@H](Cc2ccc(O)cc2)NC(=O)[C@@H](N)CCC(=O)NC[C@@H](C(=O)N2CCC[C@H]2C(=O)N[C@@H](CC(C)C)C(=O)NCC(N)=O)NC(=O)[C@H](CC(N)=O)NC(=O)[C@H](CCC(N)=O)NC1=O
notes: Synthetic cyclic oxytocin analogue: Glu-Tyr-Ile-Gln-Asn-Dap-Pro-Leu-Gly-CONH2, cyclized AA1-AA6
B9: 2LS118-1 (peptide)
peptide: DYIQN[Dap]PLG-NH2
modifications: lactam 1-6; N-terminus assumed
SMILES: CC[C@H](C)[C@@H]1NC(=O)[C@H](Cc2ccc(O)cc2)NC(=O)[C@@H](N)CC(=O)NC[C@@H](C(=O)N2CCC[C@H]2C(=O)N[C@@H](CC(C)C)C(=O)NCC(N)=O)NC(=O)[C@H](CC(N)=O)NC(=O)[C@H](CCC(N)=O)NC1=O
notes: Synthetic cyclic oxytocin analogue: Asp-Tyr-Ile-Gln-Asn-Dap-Pro-Leu-Gly-CONH2, cyclized AA1-AA6; also called compound 2LS118-1
B10: SSoxy3 (peptide)
peptide: DYIQN[Dap]P[Aib]S(glucose)-NH2
modifications: lactam 1-6
notes: Synthetic cyclic glycopeptide: Asp-Tyr-Ile-Gln-Asn-Dap-Pro-Aib-SerGlc-CONH2, cyclized AA1-AA6
B11: SSoxy5 (peptide)
peptide: EYIQN[Dap]P[Aib]S(glucose)-NH2
modifications: lactam 1-6
notes: Synthetic cyclic glycopeptide: Glu-Tyr-Ile-Gln-Asn-Dap-Pro-Aib-SerGlc-CONH2, cyclized AA1-AA6
B12: SSoxy6 (peptide)
peptide: EYIQN[Dap]P[Aib]GS(glucose)-NH2
modifications: lactam 1-6
notes: Synthetic cyclic glycopeptide: Glu-Tyr-Ile-Gln-Asn-Dap-Pro-Aib-Gly-SerGlc-CONH2, cyclized AA1-AA6

Molecular target: T1, human Mu Opioid Receptor (MOR) (human, UniProt P35372 1-400)
T1 construct: whole, on cells; also called MOR-CHO(PE)
Test: competition binding against [3H]diprenorphine on MOR-CHO(PE) membranes
Procedure: Competition Binding at MOR-CHO(PE) Presence of [3H]Diprenorphine: The compounds were also tested for off-target binding to the human Mu Opioid Receptor (MOR), also expressed in CHO cells. Briefly, the experiment involved: Protein: MOR-CHO(PE) Passage: 16; previously frozen cell pellets used and prepared. Protein 15 ug/well used. Serial dilution of compounds and Naloxone(control) used. Total binding absence of compound used, 10uM Naloxone used for nonspecific binding. Each well contained membrane 15 ug/well protein and 2.48 nM Radioligand final conc. Incubated 1 hour in R/T; harvested on GF/B filter, dried O/N. Data are normalized to % Specific binding. MOR-CHO(PE) cell Kd:5.27±2.39 nM. Data are expressed as mean of a single experiment, performed in triplicate. Vehicle contained 0.1% DMSO and 0.1% BSA. (Radioligand:#23067 Lot:2548344 NET: 1121250UC). Table 1 below also summarizes overall MOR binding profile of cyclic oligopeptides of the invention compared to naloxone.

T1 sequence (P35372 whole entry): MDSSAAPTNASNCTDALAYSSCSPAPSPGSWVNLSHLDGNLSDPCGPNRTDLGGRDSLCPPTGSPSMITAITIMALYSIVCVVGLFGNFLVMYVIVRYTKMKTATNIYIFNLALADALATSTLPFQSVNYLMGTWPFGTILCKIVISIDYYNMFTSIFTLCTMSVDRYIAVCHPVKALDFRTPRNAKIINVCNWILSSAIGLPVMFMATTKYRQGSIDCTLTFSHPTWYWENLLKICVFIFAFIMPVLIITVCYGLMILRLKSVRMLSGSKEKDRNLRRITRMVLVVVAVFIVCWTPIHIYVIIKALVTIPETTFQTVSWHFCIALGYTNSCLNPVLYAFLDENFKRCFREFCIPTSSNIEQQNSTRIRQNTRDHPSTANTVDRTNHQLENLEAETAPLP

| Binder | IC50 | Ki |
| --- | --- | --- |
| B1 | > 2500 nM | > 2500 nM |
| B2 | > 2500 nM | > 2500 nM |
| B3 | > 2500 nM | > 2500 nM |
| B4 | > 2500 nM | > 2500 nM |
| B5 | > 2500 nM | > 2500 nM |
| B6 | > 2500 nM | > 2500 nM |
| B7 | > 2500 nM | > 2500 nM |
| B8 | > 2500 nM | > 2500 nM |
| B9 | > 2500 nM | > 2500 nM |
| B10 | > 2500 nM | > 2500 nM |
| B11 | > 2500 nM | > 2500 nM |
| B12 | > 2500 nM | > 2500 nM |
